Laboratory results taken from PMC8720280 (2021).

Legend:
[1] = molecular target: T1, WT DR5 recombinant protein (IgG4-Fc tagged extracellular domain of human DR5) (human, UniProt O14763-1 56-210, biotinylated with EZ-Link Sulfo-NHS-SS-Biotin for BLI); assay: BLI
[2] = molecular target: T1, WT DR5 recombinant protein (IgG4-Fc …); assay: ELISA
[3] = molecular target: T1, WT DR5 recombinant protein (IgG4-Fc …); assay: ELISA; remark: listed apart in the source
[4] = molecular target: T1, WT DR5 recombinant protein (IgG4-Fc …); assay: BLI; remark: listed apart in the source
Chimp DR5 = assay: BLI
RKCAR DR5 = assay: BLI
Monkey DR5 = assay: BLI
RKCSR DR5 = assay: BLI

B1: KMTR2 (antibody, V domains shown)
VH: QVQLVQSGAEMKKPGASVKVSCKTSGYTFTNYKINWVRQAPGQGLEWMGWMNPDTDSTGYPQKFQGRVTMTRNTSISTAYMELSSLRSEDTAVYYCARSYGSGSYYRDYYYGMDVWGQGTTVTVSS
VL: EIVLTQSPATLSLSPGERATLSCRASQSVSSYLAWYQQKPGQAPRLLIYDASNRATGIPARFSGSGSGTDFTLTISSLEPEDFAVYYCQQRSNWPLTFGGGTKVEIK
What does the source list for B1?
Kd [1]: < 0.001 nM; Kd [2]: 0.088 nM

B2: Lexatumumab (antibody, V domains shown)
VH: EVQLVQSGGGVERPGGSLRLSCAASGFTFDDYGMSWVRQAPGKGLEWVSGINWNGGSTGYADSVKGRVTISRDNAKNSLYLQMNSLRAEDTAVYYCAKILGAGRGWYFDLWGKGTTVTVSS
VL: SSELTQDPAVSVALGQTVRITCQGDSLRSYYASWYQQKPGQAPVLVIYGKNNRPSGIPDRFSGSSSGNTASLTITGAQAEDEADYYCNSRDSSGNHVVFGGGTKLTVL
Which Kd [3] does the source give for B2 here?
Its Kd is 0.032 nM.

What about the Kd [4] of the same binder?
The Kd was 0.0376 nM.

What about the Kd (Chimp DR5) of the same binder?
The Kd was less than 0.001 nM.

And the Kd (RKCAR DR5)?
Its Kd is 0.266 nM.

What about the Kd (Monkey DR5) of the same binder?
Its Kd is 0.014 nM.

And the Kd (RKCSR DR5)?
The Kd was 0.215 nM.

And the Kd [1]?
Its Kd is 0.519 nM.

What about the Kd [2] of the same binder?
Its Kd is 0.081 nM.
